Assay results as given in patent US20240226230A1 (MAYO FOUNDATION FOR MEDICAL EDUCATION AND RESEARCH, published 2024).
Where no end group is shown, it is not given here.

Assays:
mCherry-KPNB1 = molecular target: T1, mCherry-KPNB1 (Homo sapiens (Human), UniProt Q14974 1-876); experiment: co-IP with mCherry-KPNB1, western blot
T1 construct: mCherry was cloned into GFP-KPNB1; also called mCherry-tagged KPNB1; not shown: mCherry tag (mCherry-C1, Clontech)
From the text: FIG. 30B) Lysates from HEK293T cells co-expressing mCherry-KPNB1 with GFP, GFP-TDP-CTF or GFP-TDP-CTF C-terminal deletion constructs were subjected to immunoprecipitation with RFP-Trap magnetic beads. Whole cell lysates (input) and immunoprecipitates (IP) were subjected to western blot analysis using indicated antibodies. Deletion of amino-acids 230-240 in TDP-CTF reduced its binding to KPNB1. FIG. 30C) Lysates from HEK293T cells co-expressing mCherry-KPNB1 with GFP, GFP-TDP-CTF or GFP-TDP-CTF N-terminal deletion constructs were subjected to immunoprecipitation with RFP-Trap magnetic beads. Whole cell lysates (input) and immunoprecipitates (IP) were subjected to western blot analysis using indicated antibodies. Deletion of amino-acids 230-240 in TDP-CTF reduces its binding to KPNB1. TDP-PrLD weakly interacts with KPNB1. FIG. 30D) (Left) Lysates from HEK293T cells co-expressing mCherry-KPNB1 with GFP, GFP-TDP-CTF^WT or GFP-TDP-CTF^Δ230-240 were subjected to immunoprecipitation with RFP-Trap magnetic beads. […] (Right) Quantification of relative GFP levels in IP normalized by GFP levels in input confirm that GFP-TDP-CTF^Δ230-240 interacts less with mCherry-KPNB1. […] FIG. 30F) Western blot analysis and quantification of insoluble GFP-tagged TDP-CTF^WT or TDP-CTF^Δ230-240 in HEK293T cells expressing mCherry or mCherry-KPNB1. […]

Untagged KPNB1 = molecular target: T2, Untagged KPNB1 (Homo sapiens (Human), UniProt Q14974 1-876); experiment: GFP-Trap IP from HEK293T lysates, western blot
T2 construct: KPNB1 amplified by PCR and cloned into pEGFP-C1 lacking the GFP tag; also called Wildtype KPNB1
From the text: FIGS. 29A-29C: Untagged KPNB1 interacts with both the RRM2 and PrLD of TDP-CTF. FIG. 29A) (Left) Lysates from HEK293T cells expressing GFP alone, or untagged KPNB1 with GFP, GFP-TDP-CTF or GFP-TDP43^WT were subjected to immunoprecipitation with GFP-Trap magnetic beads. Whole cell lysates (input) and immunoprecipitates (IP) were subjected to western blot analysis using indicated antibodies. (Right) Quantification of relative KPNB1 levels in IP normalized by KPNB1 levels in input. Statistical analysis was performed using one-way ANOVA and Bonferroni's post hoc test (**p<0.01, ***p<0.001, n=3). […] FIG. 29C) (Left) Lysates from HEK293T cells expressing GFP alone, or untagged KPNB1 with GFP, GFP-TDP-CTF, GFP-TDP-CTF^non-PrLD or GFP-TDP-PrLD were subjected to immunoprecipitation with GFP-Trap magnetic beads. Whole cell lysates (input) and immunoprecipitates (IP) were subjected to western blot analysis using indicated antibodies. (Right) Quantification of relative KPNB1 levels in IP normalized by KPNB1 levels in input. Statistical analysis was performed using one-way ANOVA and Bonferroni's post hoc test (***p<0.001, n=3).
FIGS. 31A-31C: The PrLD of TDP-43 interacts with FG-Nups and KPNB1. FIG. 31A) Immunofluorescence (IF) of HEK293T cells expressing GFP or GFP-TDP-PrLD and stained for endogenous Nup98 and Nup62. TDP-PrLD forms small cytoplasmic foci positive for Nup62. FIG. 31B) IF of HEK293T cells expressing GFP or GFP-TDP-PrLD and stained for endogenous KPNB1. KPNB1 colocalizes with TDP-PrLD foci in the cytoplasm. Hoechst staining was used to outline nuclei. Scale bar: 5 μm. FIG. 31C) Lysates from HEK293T cells expressing GFP or GFP-TDP-PrLD were subjected to immunoprecipitation with GFP-Trap magnetic beads. Whole cell lysates (input) and immunoprecipitates (IP) were subjected to western blot analysis using indicated antibodies. The PrLD of TDP-43 interacts with Nup62, Nup98 and KPNB1, but not with Ran.
HEK293T cells were seeded in 6-well plates and transfected for 48 hours. Cells were then lysed in IP Lysis buffer (Fisher) supplemented with a protease inhibitor cocktail (Roche), and were centrifuged at 15000 rpm for 20 minutes at 4° C. A small aliquot of the recovered supernatant was set aside (input).

[1] = molecular target: T3, GFP-KPNB1 full-length (FL) (Homo sapiens (Human), UniProt Q14974 1-876); experiment: co-IP of GFP-tagged KPNB1 truncations, western blot
T3 construct: the plasmid is GFP-KPNB1 (Euroscarf #P30478); The linker is stated in general for fluorescent protein fusions; also called EGFP-KPNB1; GFP-KPNB1^FL; not shown: GFP/EGFP tag (pEGFP-C1, Clontech)
From the text: FIG. 21A) Schematic domain structure of KPNB1. KPNB1 is comprised of 19 HEAT repeats (H1-19). RanGTP and importin-α interact with H1-8 and H8-19, respectively. FG-Nups bind to two regions of KPNB1, H5-7 and H14-16. FIG. 21B) Lysates from HEK293T cells expressing GFP, GFP-KPNB1 full-length (FL), N-terminal fragments of KPNB1 (H1-9 . . . H1) or the C-terminal fragment of KPNB1 (H10-19) were subjected to immunoprecipitation with GFP-Trap magnetic beads. Whole cell lysates (input) and immunoprecipitates (IP) were subjected to western blot analysis using indicated antibodies. KPNB1 H1-8, the smallest fully active KPNB1 fragment in reducing TDP-43 aggregation, strongly interacts with FG-Nups and Ran, and weakly with importin-al in comparison with full-length KPNB1. FIG. 21C) (Top) Schematic domain structure of KPNB1 H1-8^mNIS harboring four missense mutations (1178A, F217A, Y255A, I263R) in the nucleoporin-interacting site (NIS). (Bottom) Lysates from HEK293T cells expressing GFP, GFP-KPNB1 H1-8^WT or H1-8^mNIS were subjected to immunoprecipitation with GFP-Trap magnetic beads. Whole cell lysates (input) and immunoprecipitates (IP) were subjected to western blot analysis using indicated antibodies. […] Hoechst staining was used to outline nuclei. Scale bar: 5 μm. […] Statistical analysis was performed using one-way ANOVA and Bonferroni's post hoc test (**p<0.01, ***p<0.001, n=4). FIG. 21F) IF of HEK293T cells co-expressing GFP-(GR)₁₀₀ with an empty plasmid (ctrl), FLAG-tagged KPNB1 H1-8^WT or H1-8^mNIS and stained for endogenous TDP-43. Unlike KPNB1 H1-8^mNIS, KPNB1 H1-8^WT prevents the sequestration of endogenous TDP-43 in cytoplasmic GR aggregates. Arrowheads point to cytoplasmic GR aggregates. Hoechst staining was used to outline nuclei. Scale bar: 5 μm.

T3 sequence (Q14974 other isoform, or with tags, fused parts or gaps): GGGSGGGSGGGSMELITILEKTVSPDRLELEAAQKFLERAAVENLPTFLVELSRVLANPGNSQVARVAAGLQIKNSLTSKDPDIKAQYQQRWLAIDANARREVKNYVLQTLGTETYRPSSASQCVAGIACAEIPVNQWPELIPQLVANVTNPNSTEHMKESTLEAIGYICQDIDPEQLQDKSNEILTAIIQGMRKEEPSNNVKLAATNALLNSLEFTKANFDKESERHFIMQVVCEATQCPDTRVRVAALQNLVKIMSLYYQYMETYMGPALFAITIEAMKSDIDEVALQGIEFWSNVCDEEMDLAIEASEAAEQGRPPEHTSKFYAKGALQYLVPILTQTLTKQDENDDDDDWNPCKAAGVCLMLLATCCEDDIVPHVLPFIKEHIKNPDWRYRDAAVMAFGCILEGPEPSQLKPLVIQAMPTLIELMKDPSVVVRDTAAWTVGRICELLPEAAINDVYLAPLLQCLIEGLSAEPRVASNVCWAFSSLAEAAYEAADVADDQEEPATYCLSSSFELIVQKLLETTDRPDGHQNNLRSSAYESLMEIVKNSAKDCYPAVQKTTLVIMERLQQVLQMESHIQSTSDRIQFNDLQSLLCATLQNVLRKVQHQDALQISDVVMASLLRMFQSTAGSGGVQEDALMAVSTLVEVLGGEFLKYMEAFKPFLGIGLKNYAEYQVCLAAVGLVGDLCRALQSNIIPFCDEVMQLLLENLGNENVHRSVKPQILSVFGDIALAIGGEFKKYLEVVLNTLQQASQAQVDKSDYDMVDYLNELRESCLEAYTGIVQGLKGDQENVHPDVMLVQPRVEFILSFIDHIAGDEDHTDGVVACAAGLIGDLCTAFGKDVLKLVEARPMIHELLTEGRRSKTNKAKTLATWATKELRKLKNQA
T1 sequence (Q14974 other isoform, or with tags, fused parts or gaps): as above
T2 sequence (Q14974 whole entry): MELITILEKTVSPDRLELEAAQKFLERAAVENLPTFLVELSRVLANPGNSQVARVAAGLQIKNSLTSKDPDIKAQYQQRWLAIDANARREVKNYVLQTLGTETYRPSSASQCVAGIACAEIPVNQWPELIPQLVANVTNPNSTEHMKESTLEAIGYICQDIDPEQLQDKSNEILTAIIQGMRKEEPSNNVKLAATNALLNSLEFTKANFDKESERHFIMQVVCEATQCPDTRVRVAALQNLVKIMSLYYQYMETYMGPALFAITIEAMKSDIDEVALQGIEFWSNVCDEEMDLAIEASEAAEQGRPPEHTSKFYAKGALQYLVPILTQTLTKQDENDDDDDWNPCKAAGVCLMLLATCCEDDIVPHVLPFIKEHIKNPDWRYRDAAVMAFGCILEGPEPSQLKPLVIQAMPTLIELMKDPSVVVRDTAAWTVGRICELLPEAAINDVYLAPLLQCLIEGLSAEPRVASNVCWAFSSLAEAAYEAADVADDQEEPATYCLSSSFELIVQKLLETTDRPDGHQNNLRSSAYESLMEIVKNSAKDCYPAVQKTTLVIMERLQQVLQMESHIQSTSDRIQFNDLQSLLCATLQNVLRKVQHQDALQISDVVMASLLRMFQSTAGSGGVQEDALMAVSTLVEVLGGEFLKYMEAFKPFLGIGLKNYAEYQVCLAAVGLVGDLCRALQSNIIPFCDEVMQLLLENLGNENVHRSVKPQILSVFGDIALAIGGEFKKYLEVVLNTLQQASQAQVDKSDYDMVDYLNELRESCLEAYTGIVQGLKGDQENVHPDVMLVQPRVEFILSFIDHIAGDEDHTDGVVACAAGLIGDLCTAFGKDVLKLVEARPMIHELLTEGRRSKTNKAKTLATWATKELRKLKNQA

| Binder | binding result [1] | other results |
| --- | --- | --- |
| {GFP}-GGGSGGGSGGGSREFFSQYGDVMDVFIPKPFRAFAFVTFADDQI (other, human, also: GFP tag fused N-terminally, not in chain, (GGGS)3 linker in chain, not shown: GFP/EGFP tag (pEGFP-C1, Clontech)) [GFP-TDP-CTF 208-239] |  | binding result (mCherry-KPNB1): binds |
| GFP-TDP-CTF non-PrLD (other, human, not shown: GFP/EGFP tag (pEGFP-C1, Clontech)) GGGSGGGSGGGSREFFSQYGDVMDVFIPKPFRAFAFVTFADDQIAQSLCGEDLIIKGISVHISNAEPKHNSNRQLERSG |  | binding result (Untagged KPNB1): binds |
| endogenous Nup50 (other, human, UniProt Q9UKX7 1-468, looked up, Detected with anti-Nup50) MAKRNAEKELTDRNWDQEDEAEEVGTFSMASEEVLKNRAIKKAKRRNVGFESDTGGAFKGFKGLVVPSGGGRFSGFGSGAGGKPLEGLSNGNNITSAPPFASAKAAADPKVAFGSLAANGPTTLVDKVSNPKTNGDSQQPSSSGLASSKACVGNAYHKQLAALNCSVRDWIVKHVNTNPLCDLTPIFKDYEKYLANIEQQHGNSGRNSESESNKVAAETQSPSLFGSTKLQQESTFLFHGNKTEDTPDKKMEVASEKKTDPSSLGATSASFNFGKKVDSSVLGSLSSVPLTGFSFSPGNSSLFGKDTTQSKPVSSPFPTKPLEGQAEGDSGECKGGDEEENDEPPKVVVTEVKEEDAFYSKKCKLFYKKDNEFKEKGIGTLHLKPTANQKTQLLVRADTNLGNILLNVLIPPNMPCTRTGKNNVLIVCVPNPPIDEKNATMPVTMLIRVKTSEDADELHKILLEKKDA | binds |  |
| endogenous Nup62 (other, human, UniProt P37198 2-522, looked up, Detected with anti-Nup62) SGFNFGGTGAPTGGFTFGTAKTATTTPATGFSFSTSGTGGFNFGAPFQPATSTPSTGLFSLATQTPATQTTGFTFGTATLASGGTGFSLGIGASKLNLSNTAATPAMANPSGFGLGSSNLTNAISSTVTSSQGTAPTGFVFGPSTTSVAPATTSGGFSFTGGSTAQPSGFNIGSAGNSAQPTAPATLPFTPATPAATTAGATQPAAPTPTATITSTGPSLFASIATAPTSSATTGLSLCTPVTTAGAPTAGTQGFSLKAPGAASGTSTTTSTAATATATTTSSSSTTGFALNLKPLAPAGIPSNTAAAVTAPPGPGAAAGAAASSAMTYAQLESLINKWSLELEDQERHFLQQATQVNAWDRTLIENGEKITSLHREVEKVKLDQKRLDQELDFILSQQKELEDLLSPLEELVKEQSGTIYLQHADEEREKTYKLAENIDAQLKRMAQDLKDIIEHLNTSGAPADTSDPLQQICKILNAHMDSLQWIDQNSALLQRKVEEVTKVCEGRRKEQERSFRITFD | binds |  |
